Tests used:
[1] = molecular target: TRF2 full length;Rap1 full length (Homo sapiens?;Homo sapiens?, UniProt Q15554;Q9NYB0 1-542;1-399, |); assay: EMSA; discrete bandshift, no EBNA1; EMSA: 10 mM HEPES pH 7.5, 300 mM KCl (100 mM for TRFH), 5 mM MgCl2, 1 mM ZnCl2, 5 mM BME, 0.05% NP-40, 5% glycerol; 5 nM probe; 20 nM EBNA1 in TRF2/Rap1 titrations; 1.4% agarose; temperature not stated; conditions: protein: recombinant;recombinant; tags: His6-SUMO (N-terminal, cleaved by ULP1);His6-SUMO (N-terminal, cleaved by ULP1); chain copies: 2;2; label: 5'-IRD700 on both strands (EMSA); text calls it 60 bp)
[2] = molecular target: EBNA1 DBD 401-607;TRF2 TRFH domain (Epstein-Barr virus;Homo sapiens?, UniProt P03211;Q15554 401-607;85-287, |); assay: EMSA; clear TRFH supershift; EMSA: 10 mM HEPES pH 7.5, 300 mM KCl (100 mM for TRFH), 5 mM MgCl2, 1 mM ZnCl2, 5 mM BME, 0.05% NP-40, 5% glycerol; 5 nM probe; 20 nM EBNA1 in TRF2/Rap1 titrations; 1.4% agarose; temperature not stated; conditions: protein: recombinant;recombinant; tags: His6-SUMO (N-terminal, cleaved by ULP1);GST (N-terminal); chain copies: 4;2; label: 5'-IRD700 on both strands (EMSA); text calls it 60 bp)
Chain of EBNA1 DBD 401-607;TRF2 TRFH domain (Q15554 85-287, one chain of several): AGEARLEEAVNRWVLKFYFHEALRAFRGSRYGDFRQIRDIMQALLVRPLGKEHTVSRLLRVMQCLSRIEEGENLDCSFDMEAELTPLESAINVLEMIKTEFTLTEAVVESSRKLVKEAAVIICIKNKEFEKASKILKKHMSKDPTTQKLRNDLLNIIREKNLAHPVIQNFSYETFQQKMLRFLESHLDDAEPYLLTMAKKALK

[3] = molecular target: EBNA1 459-607;TRF2 TRFH domain (Epstein-Barr virus;Homo sapiens?, UniProt P03211;Q15554 459-607;85-287, |); assay: as above; conditions: protein: recombinant;recombinant; tags: ;GST (N-terminal); chain copies: 4;2; label: 5'-IRD700 on both strands (EMSA); text calls it 60 bp)
Chain of EBNA1 459-607;TRF2 TRFH domain (Q15554 85-287, one chain of several): as above

[4] = molecular target: EBNA1 DBD 401-607;TRF2 full length;Rap1 full length (Epstein-Barr virus;Homo sapiens?;Homo …, UniProt P03211;Q15554;Q9NYB0 401-607;1-542;1-399, ||); assay: EMSA; TRF2/Rap1 titrated with EBNA1 401-607; binding increased roughly twofold; EMSA: 10 mM HEPES pH 7.5, 300 mM KCl (100 mM for TRFH), 5 mM MgCl2, 1 mM ZnCl2, 5 mM BME, 0.05% NP-40, 5% glycerol; 5 nM probe; 20 nM EBNA1 in TRF2/Rap1 titrations; 1.4% agarose; temperature not stated; conditions: protein: recombinant;recombinant;recombinant; label: 5'-IRD700 on both strands (EMSA); text calls it 60 bp)
[5] = molecular target: EBNA1 DBD 401-607;TRF2 full length (Epstein-Barr virus;Homo sapiens?, UniProt P03211;Q15554 401-607;1-542, |); assay: EMSA; TRF2 titrated with EBNA1 401-607; binding increased roughly twofold; EMSA: 10 mM HEPES pH 7.5, 300 mM KCl (100 mM for TRFH), 5 mM MgCl2, 1 mM ZnCl2, 5 mM BME, 0.05% NP-40, 5% glycerol; 5 nM probe; 20 nM EBNA1 in TRF2/Rap1 titrations; 1.4% agarose; temperature not stated; conditions: protein: recombinant;recombinant; tags: His6-SUMO (N-terminal, cleaved by ULP1);His6-SUMO (N-terminal, cleaved by ULP1); chain copies: 4;2; label: 5'-IRD700 on both strands (EMSA); text calls it 60 bp)
Rap1 full length = molecular target: T1, Rap1 full length (UniProt Q9NYB0 1-399); assay: EMSA; up to 480 nM, no EBNA1; EMSA: 10 mM HEPES pH 7.5, 300 mM KCl (100 mM for TRFH), 5 mM MgCl2, 1 mM ZnCl2, 5 mM BME, 0.05% NP-40, 5% glycerol; 5 nM probe; 20 nM EBNA1 in TRF2/Rap1 titrations; 1.4% agarose; temperature not stated; conditions: protein: recombinant; tags: His6-SUMO (N-terminal, cleaved by ULP1); label: 5'-IRD700 on both strands (EMSA); text calls it 60 bp)
T1 sequence: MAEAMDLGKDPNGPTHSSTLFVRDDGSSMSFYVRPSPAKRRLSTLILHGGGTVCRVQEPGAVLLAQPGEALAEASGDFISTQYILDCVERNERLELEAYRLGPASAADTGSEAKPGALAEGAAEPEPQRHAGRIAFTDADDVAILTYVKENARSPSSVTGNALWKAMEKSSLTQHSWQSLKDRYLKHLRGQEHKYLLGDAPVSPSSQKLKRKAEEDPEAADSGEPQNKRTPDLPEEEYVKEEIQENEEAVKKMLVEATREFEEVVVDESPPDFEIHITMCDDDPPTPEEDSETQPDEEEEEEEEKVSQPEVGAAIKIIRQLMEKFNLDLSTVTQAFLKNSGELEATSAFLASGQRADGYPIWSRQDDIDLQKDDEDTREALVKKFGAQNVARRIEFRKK

B1: ½DS (EBV oriP dyad symmetry half) (dsDNA)
DNA 1: TAACCCTAATTCGATAGCATATGCTTCCCGTTGGGTAACATATGCTATTGAATTAGGGTTAG
DNA 2: CTAACCCTAATTCAATAGCATATGTTACCCAACGGGAAGCATATGCTATCGAATTAGGGTTA
Does B1 bind [1]?
Result: binds

Does B1 bind [2]?
Result: binds

Does B1 bind [3]?
Result: binds

Does B1 bind [4]?
Result: binds

Does B1 bind [5]?
Result: binds

Does B1 bind (Rap1 full length)?
Result: no binding

— PMC13223232, “Structural basis for TRF2-RAP1 recruitment by EBNA1 at the EBV origin of replication” (Scientific Reports, 2025)
